Reference: paper doi:10.1101/2022.11.10.512828
Where two headings read alike, the source gives them in different places. Each block holds one substance with its values, some of them ahead of it.

Experiments:
[1] = target: LS-αICD chain of the co-expression construct (pETDuet1, first cloning site) (Saccharomyces cerevisiae | rat) (UniProt P50861); experiment: densitometry of Coomassie-stained SDS-PAGE bands of the purified complex; details: scale: βICD chains to 2 αICD chains in the pentamer
[2] = target: LS-αβICD, heteropentamer of two LS-αICD and three LS-βICD chains (Saccharomyces cerevisiae | rat) (UniProt P50861); experiment: ITC
[3] = target: LS-αβICD, heteropentamer of two LS-αICD and three LS-βICD chains (Saccharomyces cerevisiae | rat) (UniProt P50861); experiment: SEC
[4] = target: LS-αβICD, heteropentamer of two LS-αICD and three LS-βICD chains (Saccharomyces cerevisiae | rat) (UniProt P50861); experiment: SEC; remark: listed apart in the source
[5] = target: LS-αβICD, heteropentamer of two LS-αICD and three LS-βICD chains (Saccharomyces cerevisiae | rat) (UniProt P50861); experiment: SEC; remark: listed apart in the source
[6] = target: unmodified lumazine synthase from Saccharomyces cerevisiae (LS^wt) (Saccharomyces cerevisiae) (UniProt P50861); experiment: AUC
[7] = target: unmodified lumazine synthase from Saccharomyces cerevisiae (LS^wt) (Saccharomyces cerevisiae) (UniProt P50861); experiment: SEC

stoichiometry N [1]: 3
Substance: LS-βICD chain of the co-expression construct (pETDuet1, second cloning site) (from UniProt P50861 1-138; P50861 139-169)

Kd [2]: 0.49 µM
stoichiometry N [2]: 0.57
amount of gephyrin bound [3]: 3 nmol
percent of gephyrin bound [3]: 75%
stoichiometry N (gephyrin trimer per LS pentamer) [3]: 1
stoichiometry N (gephyrin trimers to 3 LS pentamers) [3]: 3
stoichiometry N (gephyrin trimers to 3 LS pentamers) [4]: 4
amount of gephyrin bound [5]: 4 nmol
Substance: full-length rat gephyrin splice variant rC4 (natural protein)

Kd [2]: 0.68 µM
stoichiometry N [2]: 0.41
Substance: gephyrin E-domain (GephE) dimer (domain or fragment)

stoichiometry N [6]: 5
stoichiometry N [7]: 5
Substance: unmodified lumazine synthase from Saccharomyces cerevisiae (LS^wt) (from UniProt P50861 2-169) (enzyme)
